Test results taken from PMC3405546 (Circulation Research, 2012).

Assays:
[1] = target: glutathione s-transferase (GST) tagged cyclin E (human, UniProt P24864 1-410); assay: cross-linking
[2] = target: the molecule itself; assay: cross-linking

glutathione s-transferase (GST) tagged cyclin E, sequence (P24864 whole entry): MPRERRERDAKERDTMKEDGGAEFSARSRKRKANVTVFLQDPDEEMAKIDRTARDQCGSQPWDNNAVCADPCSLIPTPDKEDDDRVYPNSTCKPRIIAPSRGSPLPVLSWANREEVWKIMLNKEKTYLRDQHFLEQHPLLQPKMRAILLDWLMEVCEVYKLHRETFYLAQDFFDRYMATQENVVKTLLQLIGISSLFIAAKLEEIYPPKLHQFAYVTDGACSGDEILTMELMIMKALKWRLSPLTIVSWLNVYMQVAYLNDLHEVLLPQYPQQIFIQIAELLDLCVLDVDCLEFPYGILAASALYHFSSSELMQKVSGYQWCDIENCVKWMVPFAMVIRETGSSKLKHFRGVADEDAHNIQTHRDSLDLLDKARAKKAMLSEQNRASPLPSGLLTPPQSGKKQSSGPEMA

stoichiometry N [1]: 2 Cx43^CTMK4D per cyclin E
B1: Cx43^CTMK4D (Cx43 C-terminus, phospho-mimetic Ser>Asp), purified (domain or fragment, rat, UniProt P08050 236-382, looked up)
chain: VKDRVKGRSDPYHATTGPLDPSKDCGDPKYAYFNGCSSPTAPLDPMDPPGYKLVTGDRNNSSCRNYNKQASEQNWANYSAEQNRMGQAGSTISNSHAQPFDFPDDNQNAKKVAAGHELQPLAIVDQRPSSRASSRASSRPRPDDLEI
stoichiometry N [2]: 2
